This assay deals with biotin-labelled M3C phenomycin (Streptomyces fervens MA 564-Cl). As to the kind of experiment: BLI.

A word on the Kd: it is the free concentration of one partner at which half of the binding sites on the other are occupied at equilibrium, for simple one-to-one binding. A high value points to lower affinity. As to human 80S ribosome (complex), the Kd stood at 0.023 nM.

These data come from article doi:10.1101/847772.
